B1: SPSB4 (parent)
chain: LDMDEGTLSFIVDGQYLGVAFRGL
B2: KCNAB2 (parent)
chain: IPPYSRASLKGYQWLKDKILSEEG

Variants of: B1
Assay: protein stability index of a GFP-peptide fusion (GPS, HEK-293T) (PSI 1-6); higher = more stable
Details: c terminus: a fixed tail appended
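Further: lentivirally expressed fusions sorted by FACS into six bins by GFP to DsRed ratio, PSI derived from sequencing read proportions per bin multiplied by bin number.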

Protein stability index of substitutions, site by site:
Q15: E 1.39, L 2.2, M 1.98, I 2.02, A 2.87, N 3.31, K 2.5, T 3.63, D 2.33, Y 2.62, H 3.32, V 2.19, S 2.35, F 2.25
L24: F 3.21, K 1.65, H 3.29, V 3.18, T 2.67, E 1.48, Q 2.6, A 1.22, W 2.54, D 1.78, R 2.11, N 2.19, G 1.69, C 2.43, M 1.84, P 2.78, S 1.88, Y 2.76, I 3.11
Y16: S 1.84, Q 1.26, T 2.34, H 2.37, P 2.27, N 1.59, E 2.56, D 1.55, G 1.78, R 1.69, L 2.52, M 2.81, A 1.57, I 3.04, V 3.47, F 3.17, C 2.12, K 1.93, W 1.9
V12: T 2.35, R 1.84, M 2.67, H 1.62, S 1.8, Y 2.36, L 1.26, Q 1.58, K 1.79, P 1.7, W 3.35, G 1.94, F 1.92, N 1.75
F21: E 1.96, S 2.18, G 1.76, P 1.89, C 1.62, W 2.48, A 1.7, L 1.8, H 1.72, N 1.98, Y 2.27, K 2.39, I 2.95, M 1.43, D 2.31, Q 1.98, V 2.46, T 2.04, R 1.65
G23: M 2.84, C 1.86, W 4, V 3.48, D 1.84, E 2.42, F 1.96, S 3.28, I 2.48, P 2.1, N 2.38, Q 1.47, R 1.88, T 2.5, H 2.5, K 1.97, A 1.31
D13: P 1.82, K 2.61, Y 3.11, W 2.55, T 3.32, L 2.94, I 2.6, G 2.8, S 2.61, N 2.39, C 3.49, F 3.41, E 2.83, Q 2.77, M 2.37, H 2.94, V 2.9
G14: R 2.65, L 2.11, P 3.54, Q 1.5, F 2.69, E 1.91, M 2.88, V 1.95, N 1.83, T 3.42, I 3.85, A 2.58, S 2.17, D 2.32, H 3.15, Y 2.38, W 2.71, K 2.44
R22: N 2.46, K 2.01, T 4.1, A 3, L 1.81, S 2.46, D 2.41, H 3.23, Q 2.1, C 2.55, P 2.25, M 1.99, E 2.05, I 2.24, F 2.57, W 1.31, G 2.69, Y 3.56
G18: N 2.19, V 2.45, K 1.8, S 2.8, H 2.93, A 2.82, M 2.85, E 2.06, Y 3.25, Q 1.42, R 2.38, W 1.91, I 4.2, C 2.03, F 2.44, P 1.26, T 3.06, D 2.55, L 2.31
V19: I 2.77, L 1.94, A 1.97, R 2.04, P 2.43, H 2.07, C 2.33, E 1.85, G 2.18, T 2.1, S 1.66, Y 2.49, K 2.1, Q 1.94, N 1.98, D 1.99, W 2.04, M 2.32, F 2.31
L17: E 1.79, N 1.51, V 3.15, P 2.51, M 1.67, R 2.03, T 1.69, H 1.86, S 1.86, I 3.23, W 2.72, F 3.76, K 1.87, Q 2.09, A 2.15, G 1.47, Y 2.55, D 2.29
A20: Q 1.86, W 2.61, P 1.55, I 2.13, M 2.48, E 1.88, V 3.1, H 1.89, R 2.47, K 2.11, T 2.03, G 2.38, N 1.68, D 1.63, L 2.51, S 2, C 2.13, Y 2.4

Variants of: B2
Assay: as above
Details: c terminus: a fixed tail appended

Protein stability index: each site, then its substitutions
P3: K 2.75, I 2.28, C 1.51, H 1.74, V 2.3, F 2.85, Y 2.53, S 2.62, G 1.78, Q 2.54, A 2.27, T 2.06, D 3.1, E 2.5, R 3.2, L 3.1, N 2.48
R6: F 2.16, I 2.06, H 2.2, L 2.45, V 1.7, S 3.06, M 1.95, N 2.74, A 2.82, P 2.67, Q 3.23, Y 1.6, K 2.56, T 2.59, G 2.53, C 1.94, E 3.93
P2: A 1.52, I 1.25, R 2.62, D 1.7, L 2.04, M 1.37, Y 2.56, F 2.2, V 3.44, S 2.66, C 1.88, E 2.87, Q 2.92, H 1.92, K 2.02, T 1.62, N 1.86
I1: V 2.77, L 2.08, N 2.5, M 2.19, F 2.15, P 2.82, C 2.43, T 2.99, G 2.19, D 3.51, H 2.59, A 2.6, K 2.33, E 3.38, S 3.37
A7: I 1.93, C 1.59, G 2.58, L 3.23, D 3.15, E 2.86, M 1.8, K 1.9, F 2.23
S5: F 3.12, N 2.21, Q 2.45, P 3.12, K 2, G 3.42, A 2.15, R 1.82, H 2.63, D 2.8, Y 2.79, E 3.09, T 2.42
Y4: N 3.1, S 2.92, M 1.83, Q 2.96, W 1.12, R 2.35, V 2.49, C 1.6, T 2.33, L 1.34, E 4.16, A 2.77, D 4.41, I 2.29, K 2.77, G 2.76, F 2.14

Source: the supplement of paper PMC10567573
